B1: Clover-AZIN (antizyme inhibitor with an N-terminal Clover tag) [human] / antizyme-mRuby2 (antizyme with a C-terminal mRuby2 tag) [human] (parent complex)
chain 1: MKGFIDDANYSVGLLDEGTNLGNVIDNYVYEHTLTGKNAFFVGDLGKIVKKHSQWQNVVAQIKPFYTVKCNSAPAVLEILAALGTGFACSSKNEMALVQELGVPPENIIYISPCKQVSQIKYAAKVGVNILTCDNEIELKKIARNHPNAKVLLHIATEDNIGGEEGNMKFGTTLKNCRHLLECAKELDVQIIGVKFHVSSACKESQVYVHALSDARCVFDMAGEIGFTMNMLDIGGGFTGTEFQLEEVNHVISPLLDIYFPEGSGVKIISEPGSYYVSSAFTLAVNIIAKKVVENDKFPSGVEKTGSDEPAFMYYMNDGVYGSFASKLSEDLNTIPEVHKKYKEDEPLFTSSLWGPSCDELDQIVESCLLPELNVGDWLIFDNMGADSFHEPSAFNDFQRPAIYYMMSFSDWYEMQDAGITSDSMMKNFFFVPSCIQLSQEDSFSAEA
chain 2: not shown

Variants of: B1
Test: FRET titration; parent: 24 nM; read off a plot

Question: Which Kd does the source give for chain 1 K63A here?
Answer: ~23 nM

Question: For chain 1 D214A, which Kd is on record?
Answer: ~27 nM

Question: chain 1 D423A was tested. Which Kd did it give?
Answer: ~23 nM

Question: How did the Kd turn out when chain 1 M168A was run?
Answer: ~21 nM

Question: chain 1 C114A was tested. Which Kd did it give?
Answer: ~28 nM

Question: chain 1 K169A was tested. Which Kd did it give?
Answer: ~21 nM

Question: For chain 1 L139A, which Kd is on record?
Answer: ~9.3 nM

Question: chain 1 F398A was tested. Which Kd did it give?
Answer: ~23 nM

Question: Which Kd does the source give for chain 1 E136A here?
Answer: ~20 nM

Question: For chain 1 K92A, which Kd is on record?
Answer: ~25 nM

Question: For chain 1 K115A, which Kd is on record?
Answer: ~23 nM

Question: With chain 1 L361A as the variant, how does the Kd read?
Answer: ~55 nM

Question: With chain 1 Q116A as the variant, how does the Kd read?
Answer: ~21 nM

Question: Which Kd does the source give for chain 1 K141A here?
Answer: ~19 nM

Question: chain 1 S91A was tested. Which Kd did it give?
Answer: ~26 nM

Question: Which Kd does the source give for chain 1 S367A here?
Answer: ~39 nM

Question: Which Kd does the source give for chain 1 K69A here?
Answer: ~21 nM

Question: chain 1 F170A was tested. Which Kd did it give?
Answer: ~27 nM

Question: Which Kd does the source give for chain 1 D359A here?
Answer: ~41 nM

Question: Which Kd does the source give for chain 1 L328A here?
Answer: ~26 nM

Question: With chain 1 F395A as the variant, how does the Kd read?
Answer: ~58 nM

Question: How did the Kd turn out when chain 1 S329A was run?
Answer: ~24 nM

Question: With chain 1 E366A as the variant, how does the Kd read?
Answer: ~31 nM

Question: Which Kd does the source give for chain 1 N93A here?
Answer: ~35 nM

Question: chain 1 E391A was tested. Which Kd did it give?
Answer: ~12 nM

Question: How did the Kd turn out when chain 1 N396A was run?
Answer: ~47 nM

Question: With chain 1 R144A as the variant, how does the Kd read?
Answer: ~10 nM

Question: Which Kd does the source give for chain 1 S118A here?
Answer: ~15 nM

Question: With chain 1 D134A as the variant, how does the Kd read?
Answer: ~18 nM

Question: Which Kd does the source give for chain 1 Q119A here?
Answer: ~9.6 nM

Question: For chain 1 S393A, which Kd is on record?
Answer: ~25 nM

Question: With chain 1 E138A as the variant, how does the Kd read?
Answer: ~20 nM

Question: With chain 1 Y321A as the variant, how does the Kd read?
Answer: ~27 nM

Question: Which Kd does the source give for chain 1 K175A here?
Answer: ~30 nM

Variants of: B1
Test: FRET titration; Clover-containing proteins 50 nM; titration of AZ-mRuby2; parent: 22.2 nM

Question: With chain 1 S329Y as the variant, how does the Kd read?
Answer: 28.6 nM
